In IntAct's records for PubMed 25533949:

B1: Tyrosine--tRNA ligase, cytoplasmic (Homo sapiens), P54577 (parent)
chain: MGDAPSPEEKLHLITRNLQEVLGEEKLKEILKERELKIYWGTATTGKPHVAYFVPMSKIADFLKAGCEVTILFADLHAYLDNMKAPWELLELRVSYYENVIKAMLESIGVPLEKLKFIKGTDYQLSKEYTLDVYRLSSVVTQHDSKKAGAEVVKQVEHPLLSGLLYPGLQALDEEYLKVDAQFGGIDQRKIFTFAEKYLPALGYSKRVHLMNPMVPGLTGSKMSSSEEESKIDLLDRKEDVKKKLKKAFCEPGNVENNGVLSFIKHVLFPLKSEFVILRDEKWGGNKTYTAYVDLEKDFAAEVVHPGDLKNSVEVALNKLLDPIREKFNTPALKKLASAAYPDPSKQKPMAKGPAKNSEPEEVIPSRLDIRVGKIITVEKHPDADSLYVEKIDVGEAEPRTVVSGLVQFVPKEELQDRLVVVLCNLKPQKMRGVESQGMLLCASIEGINRQVEPLDPPAGSAPGEHVFVKGYEKGQPDEELKPKKKVFEKLQADFKISEECIAQWKQTNFMTKLGSISCKSLKGGNIS

Variants of: B1
Details: with parp1_human PARP1, P09874
Sequence of parp1_human PARP1, P09874 (P09874 whole entry): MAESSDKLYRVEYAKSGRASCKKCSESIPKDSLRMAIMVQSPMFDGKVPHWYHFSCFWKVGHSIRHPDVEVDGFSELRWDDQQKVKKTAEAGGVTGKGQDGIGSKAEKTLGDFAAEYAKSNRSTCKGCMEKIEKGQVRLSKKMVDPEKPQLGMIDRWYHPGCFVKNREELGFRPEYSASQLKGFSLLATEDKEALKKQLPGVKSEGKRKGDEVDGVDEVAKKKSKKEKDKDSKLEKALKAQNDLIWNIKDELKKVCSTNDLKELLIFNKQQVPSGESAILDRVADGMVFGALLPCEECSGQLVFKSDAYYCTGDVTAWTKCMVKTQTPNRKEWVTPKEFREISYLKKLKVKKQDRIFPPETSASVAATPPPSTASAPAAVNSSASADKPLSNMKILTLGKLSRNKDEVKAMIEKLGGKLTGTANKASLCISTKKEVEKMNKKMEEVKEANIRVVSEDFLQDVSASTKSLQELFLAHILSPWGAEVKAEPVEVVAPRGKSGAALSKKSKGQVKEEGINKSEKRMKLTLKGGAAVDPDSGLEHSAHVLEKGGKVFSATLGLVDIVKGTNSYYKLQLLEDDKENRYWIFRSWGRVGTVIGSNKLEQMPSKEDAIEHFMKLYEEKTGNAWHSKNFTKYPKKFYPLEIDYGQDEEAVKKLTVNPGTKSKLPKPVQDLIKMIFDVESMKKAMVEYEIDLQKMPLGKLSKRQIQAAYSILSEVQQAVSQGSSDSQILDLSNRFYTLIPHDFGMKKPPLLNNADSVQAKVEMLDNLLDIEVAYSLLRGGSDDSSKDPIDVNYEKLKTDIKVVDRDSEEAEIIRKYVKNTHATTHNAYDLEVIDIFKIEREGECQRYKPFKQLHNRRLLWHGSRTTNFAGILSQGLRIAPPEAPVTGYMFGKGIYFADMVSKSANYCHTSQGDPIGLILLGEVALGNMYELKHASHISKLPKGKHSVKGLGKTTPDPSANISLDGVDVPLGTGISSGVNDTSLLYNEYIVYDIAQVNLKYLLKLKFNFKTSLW
Y341A was tested, and the “effect of a mutation on the interaction” value was “increasing interaction strength”.
